The results in this text go back to US20230111279A1.

The labels stand for the following.
B1: anti-Clec12A antibody A (antibody, V domains shown)
VH: QVQLQESGPGLVKPSETLSLTCTVSGGSISTYYWSWIRQPPGKGLEWIGYIYYSGSTKYNPSLKSRVTISVDTSKNLFSLKLSSVTAADTAVYYCAREDYYGSGSPFDYWGQGTLVTVSS
VL: IQMTQSPSSLSASVGDRVTITCRASQGIRYDLGWYQQKPGKAPKLLIYAASSLQSGVPSRFSGSGSGTDFTLTISSLQPEDFATYYCLQDYNFPRTFGQGTKVEIK
B2: anti-Clec12A antibody B (antibody, V domains shown)
VH: QVQLVESGGGVVQPGRSLRLSCAASGFTFSSYGMHWVRQAPGKGLEWVAVISYDGSDKYYVDSVKGRFTISRDNSKNTLYLHMNSLRAEDTAVYYCARDKGYYFDYWGQGTLVTVSS
VL: EIVMTQSPATLSLSPGERATLSCRASQSVGNRYLSWYQQKPGQAPRLLIYGASTRATGIPARFSGSGSGTDFTLTISSLQPEDFAVYYCQQDYNLPLTFGGGTKVEIK
B3: anti-Clec12A antibody C (antibody, V domains shown)
VH: QVQLVESGGGVVQPGRSLRLSCAASGFTFSSYGMHWVRQAPGKGLEWVAVISYDGSDKYSADSVKGRFNISRDNSKNTLYLQMNSLRAEDTAVYYCARDGSRYFDYWGQGTLVTVSS
VL: EIFMTQSPATLSLSPGERATLSCRASQSVHSKYLSWYQQKPGQAPSLLIYGASTRATGIPARFSGSGSGTDFTLTISSLQPEDFAVYYCQQDYNLPITFGQGTRLEIK

Chain of Clec12A on cells (Clec12A over-expressing CHO-S cells; U937 cells endogenously expressing Clec12A) (Q5QGZ9 whole entry): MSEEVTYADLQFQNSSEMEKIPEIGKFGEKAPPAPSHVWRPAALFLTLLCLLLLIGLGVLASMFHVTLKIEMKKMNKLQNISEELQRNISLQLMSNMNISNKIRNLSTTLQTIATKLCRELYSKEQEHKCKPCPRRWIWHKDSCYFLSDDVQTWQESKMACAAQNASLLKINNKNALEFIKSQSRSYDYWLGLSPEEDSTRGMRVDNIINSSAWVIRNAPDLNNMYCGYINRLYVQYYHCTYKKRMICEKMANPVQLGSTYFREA

This experiment has as its target Clec12A on cells (Clec12A over-expressing CHO-S cells; U937 cells endogenously expressing Clec12A) (UniProt Q5QGZ9). Briefly: flow cytometry, serial dilution, on U937 cells endogenously expressing Clec12A.
The molecule B1 yielded a concentration for a half-maximal effect (EC50) of 0.621 nM.

On to B2, for which the EC50 turned out to be 3.36 nM. Next, B3: 3.35 nM.
